Experimental data reported in paper PMC2861610 (Molecular Biology of the Cell, 2010).

What was measured:
[1] = target: Abp1 (endogenous) (Dictyostelium (endogenous in Dictyostelium cells)); test: native gel or EMSA
GST-Abp1 (Dictyostelium) = test: SPR
[2] = target: T1, GST fusion with the GPR loop of MyoK (Dictyostelium, UniProt Q9XXV8 114-272); test: SPR
T1 sequence (looked up): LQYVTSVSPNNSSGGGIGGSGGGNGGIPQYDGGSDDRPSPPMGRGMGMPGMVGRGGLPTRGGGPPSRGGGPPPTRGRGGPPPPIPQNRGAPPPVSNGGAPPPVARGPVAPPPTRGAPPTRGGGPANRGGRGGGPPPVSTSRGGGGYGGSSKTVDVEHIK

His-tagged dynamin A = target: T2, His-tagged dynamin A (Dictyostelium, UniProt Q94464 1-853); test: far-Western, overlay or dot blot
T2 sequence (looked up): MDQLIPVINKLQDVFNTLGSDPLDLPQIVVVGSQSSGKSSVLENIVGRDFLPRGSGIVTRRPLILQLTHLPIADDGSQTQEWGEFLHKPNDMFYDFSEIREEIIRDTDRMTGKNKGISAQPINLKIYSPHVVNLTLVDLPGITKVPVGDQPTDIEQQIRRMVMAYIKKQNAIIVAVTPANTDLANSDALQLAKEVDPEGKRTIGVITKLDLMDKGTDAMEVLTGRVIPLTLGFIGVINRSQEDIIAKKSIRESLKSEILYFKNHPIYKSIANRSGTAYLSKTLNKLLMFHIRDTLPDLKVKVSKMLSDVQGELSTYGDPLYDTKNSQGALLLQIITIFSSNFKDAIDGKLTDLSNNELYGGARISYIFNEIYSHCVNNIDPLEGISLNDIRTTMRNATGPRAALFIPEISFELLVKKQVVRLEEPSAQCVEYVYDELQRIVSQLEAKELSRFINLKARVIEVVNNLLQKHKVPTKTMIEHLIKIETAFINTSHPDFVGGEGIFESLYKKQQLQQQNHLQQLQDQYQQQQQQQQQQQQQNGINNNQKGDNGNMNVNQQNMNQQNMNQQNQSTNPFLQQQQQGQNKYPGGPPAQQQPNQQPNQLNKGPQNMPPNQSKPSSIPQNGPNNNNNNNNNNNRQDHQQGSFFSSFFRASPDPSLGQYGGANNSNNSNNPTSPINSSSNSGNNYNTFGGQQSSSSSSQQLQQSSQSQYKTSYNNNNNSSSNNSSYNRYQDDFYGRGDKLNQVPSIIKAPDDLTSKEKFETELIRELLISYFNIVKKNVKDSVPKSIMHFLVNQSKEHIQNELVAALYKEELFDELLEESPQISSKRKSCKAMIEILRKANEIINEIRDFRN

Abp1 (endogenous) (natural protein)
stoichiometry N [1]: 2

B1: His-tagged dynamin A (natural protein)
chain: MDQLIPVINKLQDVFNTLGSDPLDLPQIVVVGSQSSGKSSVLENIVGRDFLPRGSGIVTRRPLILQLTHLPIADDGSQTQEWGEFLHKPNDMFYDFSEIREEIIRDTDRMTGKNKGISAQPINLKIYSPHVVNLTLVDLPGITKVPVGDQPTDIEQQIRRMVMAYIKKQNAIIVAVTPANTDLANSDALQLAKEVDPEGKRTIGVITKLDLMDKGTDAMEVLTGRVIPLTLGFIGVINRSQEDIIAKKSIRESLKSEILYFKNHPIYKSIANRSGTAYLSKTLNKLLMFHIRDTLPDLKVKVSKMLSDVQGELSTYGDPLYDTKNSQGALLLQIITIFSSNFKDAIDGKLTDLSNNELYGGARISYIFNEIYSHCVNNIDPLEGISLNDIRTTMRNATGPRAALFIPEISFELLVKKQVVRLEEPSAQCVEYVYDELQRIVSQLEAKELSRFINLKARVIEVVNNLLQKHKVPTKTMIEHLIKIETAFINTSHPDFVGGEGIFESLYKKQQLQQQNHLQQLQDQYQQQQQQQQQQQQQNGINNNQKGDNGNMNVNQQNMNQQNMNQQNQSTNPFLQQQQQGQNKYPGGPPAQQQPNQQPNQLNKGPQNMPPNQSKPSSIPQNGPNNNNNNNNNNNRQDHQQGSFFSSFFRASPDPSLGQYGGANNSNNSNNPTSPINSSSNSGNNYNTFGGQQSSSSSSQQLQQSSQSQYKTSYNNNNNSSSNNSSYNRYQDDFYGRGDKLNQVPSIIKAPDDLTSKEKFETELIRELLISYFNIVKKNVKDSVPKSIMHFLVNQSKEHIQNELVAALYKEELFDELLEESPQISSKRKSCKAMIEILRKANEIINEIRDFRN
Kd (GST-Abp1 (Dictyostelium)): 2.6 nM

B2: Profilin I (natural protein, Dictyostelium, UniProt P26199 1-126, looked up)
chain: MSWQQYVDEQLTGAGLSQGAILGANDGGVWAKSSGINITKPEGDGIAALFKNPAEVFAKGALIGGVKYMGIKGDPQSIYGKKGATGCVLVRTGQAIIVGIYDDKVQPGSAALIVEKLGDYLRDNGY
Kd [2]: ~500 nM | binding result (His-tagged dynamin A): binds

B3: Profilin II (natural protein, Dictyostelium, UniProt P26200 1-124, looked up)
chain: MTWQAYVDNNLLGAGFASAALLGAADGSVWAHSAGFNVAEGKAITALFQKDGAAFATGIHVAGKKYMAIKSDTRSAYGKLGAGGVVCVKTLTCIIVAVYDDKLQPGAAANIAEKLADYLIDNNC
Kd (GST-Abp1 (Dictyostelium)): 11 nM | Kd [2]: 108 nM | binding result (His-tagged dynamin A): binds

B4: GST fusion with the GPR loop of MyoK (domain or fragment)
chain: LQYVTSVSPNNSSGGGIGGSGGGNGGIPQYDGGSDDRPSPPMGRGMGMPGMVGRGGLPTRGGGPPSRGGGPPPTRGRGGPPPPIPQNRGAPPPVSNGGAPPPVARGPVAPPPTRGAPPTRGGGPANRGGRGGGPPPVSTSRGGGGYGGSSKTVDVEHIK
Kd (GST-Abp1 (Dictyostelium)): 27 nM
